Laboratory results reported in patent publication EP1106183A2.

Columns and labels:
[1] = target: human ErbB2 on BT474 human breast tumor cells (human) (UniProt P04626); assay: cell-based or functional assay
[2] = target: human ErbB2 on BT474 human breast tumor cells (human) (UniProt P04626); assay: Scatchard analysis; 125I-labelled antibody on BT474 cell monolayers, 4 h on ice

| % apoptosis of BT474 cell population (Hoechst 33342 cell cycle analysis, 3 days) [1] | proportion of S-phase cells (BT474, 3 days) [1] | Kd [2] | Substance |
| --- | --- | --- | --- |
| 60.5% | 64.9% |  | anti-ErbB2 IgG1κ murine monoclonal antibody 7C2 |
| 41.9% | 5.4% | 6.5 nM | anti-ErbB2 IgG1κ murine monoclonal antibody 4D5 |
